Results from the nanobody polyreactivity screen of Harvey et al. (2022).

Test: yeast display, Sf9 membrane polyspecificity reagent, FACS + sequencing; frameworks hold sequencing errors
Procedure, shortened: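 Genes from sorted yeast were amplified by colony PCR, read by MiSeq 2 × 250 sequencing and filtered on CDR length. These cells carried a synthetic nanobody library in Saccharomyces cerevisiae BJ5465 and were sorted by FACS into low and high (top ~1%) gates on anti-HA and streptavidin fluorescence. Polyreactivity is labelled according to the gate of origin.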

Sequence	polyreactivity (PSR sort gate)
QVQLVESGGGLVQAGGSLRLSCAASGITFDYYAMGWYRPAPGKERELVAAISGSGARTYYADSVKGRFTISRDTAKNTFYLQMNSLKPEDTAVYYCAAEYYTVPPGGIEDYWGQGTQVTVSS	high polyreactivity
QVQLVESGGGLVQAGGSLRLSCAASGITFEDYAMGWYRQAPGKERELVAAISWSGDITYYADSVKGRFTISRDNAKNTVYLQMNSLKPVDTAVYYCAADLSPYGYDYWGQGTQVTVSS	low polyreactivity
QVQLVESGGGLVQAGGSLRLSCAASGITFEGYAMGWYRQAPGKERELVAAIRSSGTSTYYADSVKGRFTISRDNAKNTVYLQMYSLKPEDTAVYYCNRARSSSRYDYWGQGTQVTVSS	low polyreactivity
QVQLVESGGGLVQAGGSLRLSCAASGITFEVYAMGWYRQAPGKERELVAVITSVGSTNYADSVKGRFTISRDNAKNTVYLQMNSLKPEDTAVYFCAAEKWTVRRFNPYTYYRFDYWGHGTQVTVSS	low polyreactivity
QVQLVESGGGLVQAGGSLRLSCAASGITFFLYAMGWYRQAPGKERELVAVISASGGSTYYADSVKGRFTISRDNAKNTVYLQMNSLKPEDTAVYYCAAGYRFYGFYAHDYWGQGTQVTVSS	high polyreactivity
QVQLVESGGGLVQAGGSLRLSCAASGITFFPYAMGWYRQAPGKERELVASISDGGGTNYADSVKGRFTISRDNAKNTVYFQMNSLKPEDTAVYYCATDASTYAYYGGDYWGQGTQVTVSS	low polyreactivity
QVQLVESGGGLVQAGGSLRLSCAASGITFFRYAMGWYRQAPGKERELVATIRSGDRTYYADSVKGRFTISRDNAKNTVYLQMNSLKPEDTAVYYCAAYDNRYTIRPENYWGQGTQVTVSS	high polyreactivity
QVQLVESGGGLVQAGGSLRLSCAASGITFFTYAMGWYRQAPGKERELVATISRSGGRTYYADSVKGRFTISRDNAKNTVYLQMNSLKPEDTAVYYCAARTYYWGALIVSYDYWGQGTQVTVSS	low polyreactivity
QVQLVESGGGLVQAGGSLRLSCAASGITFFYNAMGWYRQAPGKERELVAAISTSGGSTHYADSVKGRFTISRDIAKNTVYLQMNSLKPEDTAVYYCAARGRYRLYGYWGQGTQVTVSS	high polyreactivity
QVQLVESGGGLVQAGGSLRLSCAASGITFFYYAMGWYTQAPGKERELVAAISTSGGRTYYADSVKGRFTISRDNAKNTVYLQMHSLKPEDTAVYYCAARSRVQPAGPRYDYWGQGTQVTVSS	high polyreactivity
QVQLVESGGGLVQAGGSLRLSCAASGITFGANALGWYRQAPGKERELVAEITWSGGDTYYADSVKGRFTISRDNAKNTVYLQMNSLKPEDTAVYYCNALQPGLGSPLGEYDYWGQGTQVTVSS	low polyreactivity
QVQLVESGGGLVQAGGSLRLSCAASGITFGANTMGCYRQAPGKERELVSAITISGGITHYADSVKGRVTISRDNAKHTVYLQLNSLKPEDTAVNYCAAGAYWRLYPYRQRNGGRRYYWGQGTQVTVSW	low polyreactivity
QVQLVESGGGLVQAGGSLRLSCAASGITFGDNAMGWYRQAPGKERELVAAISSGGSTDYADSVKGRFTISRDNAKNTVYLQMNSLNPEDTAVYYCAVDWVSVPEYDYWGQGTQVTVSS	low polyreactivity
QVQLVESGGGLVQAGGSLRLSCAASGITFGEYAMGWYRQAPGKERQLVAAITTSGTSTYYADSVKGRFTISRDNAKNTDYLQMNSLKPEDTAVYYCAAYSRAAAGFYSSRRDYYWGQGTQVSVSS	low polyreactivity
QVQLVESGGGLVQAGGSLRLSCAASGITFGFNAMGWNRQAPGKERELVAAITWSVGRTYYADSVKGRFTISRDNAKNTVYLQMNSLKPEDTAVYYCAKDFEAGDDYFAYDYWGQGTQVTVSS	low polyreactivity
QVQLVESGGGLVQAGGSLRLSCAASGITFGFNAMGWYRQAPGKERELVAAITWSVGRTYYADSVKGRFTISRDNAKNTVYLQMNSLKPEDTAVYYCAKDFEAGDDYFAYDYWGQGTQVTVSS	low polyreactivity

Sequence	polyreactivity (PSR sort gate)
QVQLVESGGGLVQAGGSLRLSCAASGITFGGNALGWYRQAPGTERELVAGIDDGGSTNYADSVKGRFTISRDNAKNTVYLQMNSLKPEDTAVYYCAVQGHPPLVILPGFLFDYWGQGTQVTVSS	low polyreactivity
QVQLVESGGGLVQAGGSLRLSCAASGITFGGNAMGWSRQAPGKERELVAAIDEGGGSTYYADSVKGRFTISRDNAKNTVYLQMNSLKPEDTAVYYCAADFVYYGYYYWGQGTQVTVSS	low polyreactivity
QVQLVESGGGLVQAGGSLRLSCAASGITFGGNAMGWYRQAPGKERELVAAISRRGGSTYYADSVKGRFTISRDNAKNTVYLQMNSLKPEDTAVYYCAAYDPVNSPGYDYWGQGTQVTVSS	high polyreactivity
QVQLVESGGGLVQAGGSLRLSCAASGITFGIYAMGWDRQAPGKERELVAAISLSGGSTYYADSVKGRFTISRDNAKNTVYLQMNSVKPEDTAVYYCNARRNRYGEYYWGQGTQVTVSS	high polyreactivity
QVQLVESGGGLVQAGGSLRLSCAASGITFGKNAMVWYRQAPGKEREFDAAISWGGGRTYYADSVKGRFTISRDNAKNTVYLQMNSLKPEDTAVYYCNVGPRAGWYRSNYDYWGQGTQVTVSS	low polyreactivity
QVQLVESGGGLVQAGGSLRLSCAASGITFGNYAMGWYRQAPGKDRELVAAITGSGGRTYYADSVKGRFTISRDNAKNTVYLQMNSLKPEDTAVYYCNRRQYGRKKQYDYWGQGTQVTVSS	low polyreactivity
QVQLVESGGGLVQAGGSLRLSCAASGITFGNYAMGWYRQAPGKEREFVAAISQSYGRTYYADSVKGRFTISRDNAKNTVYLQMNSLKPEDTAVYYCAARTRGSSRGDYDYWGQGTQVTVSS	high polyreactivity
QVQLVESGGGLVQAGGSLRLSCAASGITFGPYAMGWYRQAPGKERELVATISSSGGSTYYADSVKGRFTISRDNAKNTVYLQMNSLIPEDTAVYYCNAGYAPYLGAYDYWGQGTQVTVSS	low polyreactivity
QVQLVESGGGLVQAGGSLRLSCAASGITFGQNAMGWYRQAPGKEREYVATITASGSTYYADSVKGRFTISRDNAKNTVYLQMNSLKPEDTAVYYCATRYAGEYYWDYDYWGQGTQVTVSS	high polyreactivity
QVQLVESGGGLVQAGGSLRLSCAASGITFGRNAMGWSRQAPGKERELVAAISRGGSTNYADSVKGRFTISRDNAKNTVYLQMTRLKPEDTAVYYCATAYRGRAWGYDYWGQGTQVTVSS	high polyreactivity
QVQLVESGGGLVQAGGSLRLSCAASGITFGRNTMGWSRQAPGKERELVAAIDSGANTYADSVKGRFTISSDNAKNTVYLQMISLKPEDSAVYYCAVDGGEFSSYGYWGQGTQVTVSW	low polyreactivity
QVQLVESGGGLVQAGGSLRLSCAASGITFGRNTMGWYRQAPGKERELVAAIDSGGNTYADSVKGRFTISRDNAKNTVYLQMNSLKPEDTAVYYCAVDGGEFSSYGYWGQGTEVTVSS	low polyreactivity
QVQLVESGGGLVQAGGSLRLSCAASGITFGRYAMGWYRQAPGKERELVAAISSRTGRTYYADSVKGRFTISRDNAKNTVYLQMNSLKPEDTAVYYCARDSKLSASYDRDDSWGQGTQVTVSS	high polyreactivity
QVQLVESGGGLVQAGGSLRLSCAASGITFGSNTMGLYRQAPGKERELVAVITWSGGSTYYADSVKGRFTISRDNAKNTVYLQMNSLIPEDTAVYDCAKPGEVNGQPPPQTESAYDYRGQGTQVTVSS	low polyreactivity
QVQLVESGGGLVQAGGSLRLSCAASGITFGSYAMGWYRQAPGKERELVATISKSGGSTYYADSVKGRFTISRDNEKNTVYLQMNSLKPEDTAVYYCARRYVAKRMDFWGQGTQVTVSS	high polyreactivity
